Assay [1] addresses T1, murine CD22 protein (ACROBiosystems, SI2-M52Ha) (murine, UniProt P35329 22-708).
T1 construct: extracellular domain; also called murine CD22-ECD; murine CD22-ECD-His
T1 sequence (looked up): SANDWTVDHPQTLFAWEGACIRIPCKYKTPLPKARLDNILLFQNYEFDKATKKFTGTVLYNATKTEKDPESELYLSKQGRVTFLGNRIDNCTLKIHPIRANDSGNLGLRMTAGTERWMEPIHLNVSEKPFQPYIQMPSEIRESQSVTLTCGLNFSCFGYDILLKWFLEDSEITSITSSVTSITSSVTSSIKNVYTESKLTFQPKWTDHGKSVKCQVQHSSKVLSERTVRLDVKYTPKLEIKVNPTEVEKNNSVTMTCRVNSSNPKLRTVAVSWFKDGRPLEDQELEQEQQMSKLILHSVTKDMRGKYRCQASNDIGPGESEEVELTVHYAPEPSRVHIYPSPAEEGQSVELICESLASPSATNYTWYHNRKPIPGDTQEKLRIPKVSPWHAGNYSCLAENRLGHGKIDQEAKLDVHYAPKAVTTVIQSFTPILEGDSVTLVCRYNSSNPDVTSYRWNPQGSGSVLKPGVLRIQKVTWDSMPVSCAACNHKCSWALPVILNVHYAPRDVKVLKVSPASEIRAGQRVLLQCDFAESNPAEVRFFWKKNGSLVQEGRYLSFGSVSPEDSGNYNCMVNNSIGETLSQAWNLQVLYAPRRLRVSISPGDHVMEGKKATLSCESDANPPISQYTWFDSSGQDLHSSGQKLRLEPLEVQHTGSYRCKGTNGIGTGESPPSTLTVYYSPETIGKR
The experiment in a line: ELISA, coated murine CD22, 0.0001 nM Ab. Put shortly:
(§1)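 Coat 2 μg/mL CD22 in PBS, overnight 4° C; block PBS/2% BSA 2 h RT. Ab 2 h 37° C; HRP anti-species secondary 2 h 37° C. TMB 30 min RT, stop 1.0 N HCl.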

For assay [2], the target named is T1, murine CD22 protein (ACROBiosystems, …). The assay can be described thus: ELISA, coated murine CD22, 0.1 nM Ab. Put shortly: as §1
Assay [3] has the same target. The experiment in a line: ELISA, coated murine CD22, 100 nM Ab. Put shortly: as §1
The target in assay [4] is T2, human CD22, endogenous on Raji cells (human, UniProt P20273 20-847).
T2 construct: whole, on cells; Endogenous protein of the Raji cell line
T2 sequence (looked up): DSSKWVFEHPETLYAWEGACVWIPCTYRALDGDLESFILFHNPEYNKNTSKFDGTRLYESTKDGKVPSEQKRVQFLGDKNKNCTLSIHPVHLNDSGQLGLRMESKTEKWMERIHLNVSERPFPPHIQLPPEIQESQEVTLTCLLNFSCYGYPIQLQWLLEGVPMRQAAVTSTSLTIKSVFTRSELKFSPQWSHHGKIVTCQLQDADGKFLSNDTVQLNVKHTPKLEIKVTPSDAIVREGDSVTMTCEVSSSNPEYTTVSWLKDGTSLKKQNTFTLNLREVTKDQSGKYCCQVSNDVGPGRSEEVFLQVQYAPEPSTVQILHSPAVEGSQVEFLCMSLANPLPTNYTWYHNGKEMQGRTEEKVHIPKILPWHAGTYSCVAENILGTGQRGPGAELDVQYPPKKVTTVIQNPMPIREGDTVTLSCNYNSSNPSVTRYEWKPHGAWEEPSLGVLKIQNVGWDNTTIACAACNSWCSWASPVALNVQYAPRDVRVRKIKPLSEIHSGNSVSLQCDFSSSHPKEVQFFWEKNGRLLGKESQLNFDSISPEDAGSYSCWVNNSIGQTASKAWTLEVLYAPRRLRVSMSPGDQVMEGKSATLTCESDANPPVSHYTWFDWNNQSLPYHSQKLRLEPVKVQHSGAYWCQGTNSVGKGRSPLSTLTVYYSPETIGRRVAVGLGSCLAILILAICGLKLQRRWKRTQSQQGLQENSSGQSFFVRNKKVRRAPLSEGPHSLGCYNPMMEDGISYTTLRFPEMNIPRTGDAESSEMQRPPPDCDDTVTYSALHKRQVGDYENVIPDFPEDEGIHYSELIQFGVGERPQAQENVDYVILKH
The assay can be described thus: FACS, Raji cells. Summed up: (§2)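 Raji cells and CHO-K1 cells expressing human CD22 were blocked in PBS + 2% BSA at 2×10⁶ cells/ml and incubated with chimeric antibody for 2 h on ice. Bound antibody was detected with an Alexa Fluor 488 secondary for 1 h on ice and read by flow cytometry as MFI. EC50 came from curve fitting.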

Assay [5] deals with T1, murine CD22 protein (ACROBiosystems, …). The assay can be described thus: ELISA, coated murine CD22, 10 nM Ab. Summed up: as §1
The target is the same in assay [6]. The experiment in a line: ELISA, coated murine CD22, 0.001 nM Ab. Summed up: as §1
Assay [7] deals with T3, human CD22, full length, on CHO-K1-human CD22 2C4 cells (human, UniProt P20273 20-847).
T3 construct: Full-length human CD22 (NCBI NP_001762.2) stably transfected into CHO-K1
T3 sequence: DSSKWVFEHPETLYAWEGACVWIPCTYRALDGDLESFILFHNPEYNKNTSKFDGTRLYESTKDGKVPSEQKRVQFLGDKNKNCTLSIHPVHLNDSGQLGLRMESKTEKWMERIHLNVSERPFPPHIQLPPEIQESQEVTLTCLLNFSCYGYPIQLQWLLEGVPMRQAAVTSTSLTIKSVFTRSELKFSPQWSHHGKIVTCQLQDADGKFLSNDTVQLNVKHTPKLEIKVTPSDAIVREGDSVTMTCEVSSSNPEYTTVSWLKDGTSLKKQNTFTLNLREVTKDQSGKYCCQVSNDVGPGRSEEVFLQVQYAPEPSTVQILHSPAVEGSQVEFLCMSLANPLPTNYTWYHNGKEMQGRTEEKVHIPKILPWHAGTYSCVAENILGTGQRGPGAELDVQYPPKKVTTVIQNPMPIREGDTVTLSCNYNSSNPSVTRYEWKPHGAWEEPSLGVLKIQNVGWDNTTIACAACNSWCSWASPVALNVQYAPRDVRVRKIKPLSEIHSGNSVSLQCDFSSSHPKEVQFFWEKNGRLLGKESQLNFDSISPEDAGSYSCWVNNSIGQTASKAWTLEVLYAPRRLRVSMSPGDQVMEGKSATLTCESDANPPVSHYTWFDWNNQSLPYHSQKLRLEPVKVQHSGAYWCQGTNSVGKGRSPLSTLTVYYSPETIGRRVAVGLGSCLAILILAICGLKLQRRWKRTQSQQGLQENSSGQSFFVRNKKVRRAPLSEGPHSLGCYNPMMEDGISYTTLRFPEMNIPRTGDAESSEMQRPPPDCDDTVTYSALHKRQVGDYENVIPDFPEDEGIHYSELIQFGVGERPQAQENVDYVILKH
The experiment in a line: FACS, CHO-K1-human CD22 2C4 cells. Summed up:
as §2

Assay [8] concerns the target T1, murine CD22 protein (ACROBiosystems, …). The assay can be described thus: ELISA, coated murine CD22, 0.00001 nM Ab. Put shortly:
as §1

The target is the same in assay [9]. The experiment in a line: ELISA, coated murine CD22, 0.01 nM Ab. Put shortly:
as §1

Assay [10] has as its target T4, CD22 on cynomolgus monkey peripheral blood B cells (cynomolgus monkey (Macaca fascicularis)).
T4 construct: whole, on cells; also called cynomolgus monkey B cells
The experiment in a line: FACS, cynomolgus PBMC, CD20+ B cells, antibody 10 nM. From the text: (§3) The monkey peripheral blood mononuclear cells were extracted from fresh cynomolgus monkey peripheral blood (purchased from Shanghai Medicilon Inc.) according to the instructions of Ficoll-Paque Plus (purchased from GE Healthcare, catalog number: 171440-02). After the cell suspension was centrifuged, the cells were resuspended in PBS containing 1% BSA, and then the cells were counted. At the same time, the murine antibody Brilliant Violet 605 anti-human CD20 (catalog number: 302334, purchased from Biolegend) with monkey CD20 cross-binding activity and the chimeric antibodies to be tested (1 nM, 10 nM and 100 nM) were added and incubated at room temperature for 1 hour. After washing the cells three times, APC-labeled secondary antibody anti-human IgG Fc (catalog number: 409306, purchased from Biolegend) was added. After incubation at room temperature in the dark for 30 minutes, the cells were washed 5 times, gently resuspended with PBS containing 1% BSA, and detected and analyzed by FACS (FACS Canto™, purchased from BD Company). Wherein CD20 was used as a marker of B cells, and the CD20-positive B cell population was gated, the proportion of chimeric antibody positive cells was analyzed, and the proportion of chimeric antibody positive cell population to B cell population was calculated after treatments with the chimeric antibodies at the concentrations of 100 nM, 10 nM and 1 nM, respectively. The scatter plot of double-stained cells by Brilliant Violet 605-labeled CD20 and APC secondary antibody indirectly labeled chimeric antibody is shown in FIG. 10A-FIG. 10B (under the condition of 1 nM of chimeric antibody concentration).

Assay [11] deals with T4, CD22 on cynomolgus monkey peripheral …. The experiment in a line: FACS, cynomolgus PBMC, CD20+ B cells, antibody 1 nM.
Description: as §3

Assay [12] shares this target. The assay can be described thus: FACS, cynomolgus PBMC, CD20+ B cells, antibody 100 nM.
Description: as §3

Data on three molecules can be found in US20240084003A1 (SIMCERE ZAIMING PHARMACEUTICAL, published 2024).

B1: F1.257.3 human-murine chimeric antibody (antibody, human IgG1, kappa, V domains shown)
VH: QVQLQQSGPELARPGASVKLSCKASGYTFTSYGISWVKQRTGQDLEWIGEIYPKLGTTYYNEKFKDKATLTTDRSSSTAYMALRSLTSEDSAVYFCACPHYYATRGGDYWGQGTTLTVSS
VL: EIVLTQSPATLSVTPGDSVTFSCRASQSISNHLHWYQQKSHESPRLLIRYASQSISGIPSRFSGSGSGTDFTLSLSSVETEDFGVYFCQQSHSWPYTFGGGTKLEIAR
notes: Chimeric, human IgG1 / kappa; VL tied by name
For B1, the OD450 in assay [1] was 0.05 OD450; in assay [2] it was 0.05 OD450; in assay [3] it was 0.2 OD450; in [5], 0.07 OD450; in [6], 0.05 OD450; in assay [8], 0.06 OD450. The molecule also displayed an OD450 in [9] of 0.05 OD450. Also, the EC50 was 0.27 nM in [4] and 0.68 nM in assay [7]. Also, the “Maximum mean fluorescence intensity” value in assay [4] came out at 29300 MFI; in assay [7], 46600 MFI.

B2: F1.161.7 (antibody, human IgG1, kappa, V domains shown)
VH: QVQLQQPGAELVKPGASVKMSCKASGYTFTSYWISWVKQRPGQGLEWIGDIYPGTGSSNYNEKFKSKATLTVDTSSSTAYMQLSSLTSEDSAVYYCARLKFEGIGYWGQGTTLTVSS
VL: QIVLTQSPAIMSASLGEEITLTCSASSSVSYMHWFQQKSGTSPKLLIYSISNLASGVPSRFSGSGSGTFYSLTISSVEAEDAADYYCHQWSSYPWTFGGGTKLEIKR
notes: human-murine chimeric IgG1 kappa
Turning to B2, the results for the “Proportion of chimeric antibody positive cells to B cells (%)” value in assay [10], in assay [11] and in assay [12] were 21%, 16% and 29%, respectively.

B3: F1.161.7 human-murine chimeric antibody (antibody, human IgG1, kappa, V domains shown)
VH: QVQLQQPGAELVKPGASVKMSCKASGYTFTSYWISWVKQRPGQGLEWIGDIYPGTGSSNYNEKFKSKATLTVDTSSSTAYMQLSSLTSEDSAVYYCARLKFEGIGYWGQGTTLTVSS
VL: QIVLTQSPAIMSASLGEEITLTCSASSSVSYMHWFQQKSGTSPKLLIYSISNLASGVPSRFSGSGSGTFYSLTISSVEAEDAADYYCHQWSSYPWTFGGGTKLEIKR
notes: Chimeric, human IgG1 / kappa
With B3, the OD450 turned out to be 0.05 OD450 in [1]; 0.05 OD450 in assay [2]; 0.08 OD450 in assay [3]; 0.06 OD450 in assay [5]; 0.05 OD450 in assay [6]; 0.06 OD450 in assay [8]. The molecule also showed an OD450 in assay [9] of 0.05 OD450. Besides, the results for the EC50 in assay [4] and in [7] were 0.22 nM and 0.59 nM, respectively. The figures for the “Maximum mean fluorescence intensity” value in [4] and in [7] were 27900 MFI and 37100 MFI, respectively.
